Laboratory results published in CN117088975A.

Target: ALB蛋白(天然提取)
Assay: AMC sensor, antibody immobilised at 10 ug/ml, ALB in gradient dilution in PBST

B1: Anti-ALB-2G9mut2 (antibody, mouse IgG1, kappa, V domains shown)
VH: QVQLQQSGAELVRPGSSVKISCKASGYAFSNYWMNWVKQRPGQGLEWIGQIYPGDGDTYYNGRFKGKATITADKSPTTAYMQLSSLTSEDSAVYVCARGVLLGSFDYWGQGTTLTVSS
VL: QIVLTQSPAIMSASPGEKVTMTCSASSSVSYMHWYQQKSGTSPKRWIYDTSKLASGVPVRFSGSGSGTSYSLTIRSMEAEDAATYYCQQWGSNPLTFGAGTKLELKR
Binder B1 has a Kd of 1.85 nM, a koff of 0.00241 s⁻¹ and a kon of 1.3e+06 M⁻¹ s⁻¹.
